In US6924101B2, “Methods for identifying anti-microbial agents” (priority 1997, dated 2005):

Tests used:
JRG58201 = assay: Growth and viability of ampG null strain after IPTG induction; type: cell-based, E. coli
Source text: Lethality of pJB59 antisense RNA requires inhibition of orf1. The polycistronic mRNA that encodes ampG in E. coli has an upstream ORF, termed orf1 herein: The antisense RNA made by pJB59 is complementary to orf1. In order to determine whether translational inhibition of orf1 or of ampG was the cause of the lethality of pJB59 antisense RNA, pJB59 was transformed into the ampG null strain, JRG58201. Jacobs, C., et al, EMBO J. 13:4684-4694 (1993). JRG58201 has a defect in the ampG gene but has no known defect in the orf1 gene.

E. coli DH5α [1] = assay: Growth curves (OD450) in liquid LB media with or without 1 mM IPTG (FIG. 7); type: cell-based
Experimental: FIG. 7 is a graph showing growth curves of E. coli DH5α containing pJB37, pJB57 and pJB59 in liquid media in the presence and absence of IPTG.
Inhibition of bacterial growth after IPTG induction. Growth curves were carried out by back diluting cultures 1:20 into fresh media with or without 1 mM IPTG and measuring the OD450 every 30 minutes (min). To study transcriptional induction in exponential phase, cultures were diluted 1:10^6 or as indicated. The viability (CFU/ml) was determined over time by plating aliquots of the culture on agar with or without IPTG.
Kinetics of inhibition during exponential growth by antisense RNA. The kinetics of antisense inhibition was examined for strains carrying pJB37, pJB53, pJB57 or pJB59. Overnight cultures of each strain were diluted 1:20 into LB media containing 1 mM IPTG or LB media without IPTG. The OD450 was then measured on the liquid cultures. […] After induction of antisense RNA expression, a few generations of cell division presumably are required in order to dilute endogenous gene product present at the initiation of induction.

E. coli DH5α [2] = assay: Colony formation on M9 agar with or without 1 mM IPTG (FIG. 6); type: cell-based; conditions: M9 agar containing 1 mM IPTG vs without IPTG
Experimental: FIG. 6 is a bar graph showing the effect of inducing lepB, ddlB, viaA or orf1 antisense RNA expression on colony formation in E. coli DH5α. Striped bars indicate colony forming units (CFUs) per ml of culture for strains grown on semi-solid media in the absence of the inducer IPTG. Solid bars indicate CFUs/ml for strains grown in the presence of IPTG.
Cell proliferation for each strain was measured by diluting overnight cultures 1:10^6 into M9 medium. After growth to an OD450 of 0.2, aliquots of each culture were plated on M9 agar without IPTG or M9 agar containing 1 mM IPTG. […] Colony formation by cells carrying pJB57 was inhibited more than 100 fold. The colony formation of strains carrying pJB59 was inhibited more than 1000 fold.

E. coli DH5α [3] = assay: Viability (CFUs/ml) over time after induction of antisense RNA expression (FIG. 8); type: cell-based
Experimental: FIG. 8 is a graph showing the viability of DH5α strains at various times after induction of antisense RNA expression. Strains contained the following plasmids: squares: pJB37; diamonds: pJB53; circles: pJB57; and triangles; pJB59.
Inhibition of viability by antisense RNA. The viability over time of the four strains expressing the antisense RNAs described above was also examined. Overnight cultures of each strain were diluted 1:100 into LB medium containing 1 mM IPTG. Aliquots of each culture were plated on LB agar containing ampicillin at intervals thereafter to determine CFUs/ml.

Salmonella typhimurium = assay: Growth of transformants plated on LB with or without 1 mM IPTG; type: cell-based
Experimental: In order to examine the effectiveness of the antisense RNAs in a related species, Salmonella typhimurium was transformed with pJB37 or pJB53. The ampicillin-resistant transformants were plated on LB with or without 1 mM IPTG.

E. coli DH5α [4] = assay: Effect of different concentrations of inducer IPTG on viability (FIG. 9); type: cell-based
Experimental: FIG. 9 is a graph showing the effect of varying concentrations of inducer on the viability of DH5α containing pJB37 (panel A) or pJB53 (panel B).
Effect of different concentrations of transcriptional inducer. Experiments were carried out to determine the effect of different concentrations of the inducer IPTG on bacterial growth and viability with the two clones where antisense RNA is bacteriocidal. Overnight cultures were diluted 1:100 into LB media containing 0, 10, 100 500 or 1000 micro molar (μM) IPTG. At the time of induction and every 2 hours thereafter, aliquots were plated on LB/ampicillin agar to determine CFUs/ml.

Row | Molecule | growth and viability after IPTG induction (JRG58201) | time after induction until significant effect on the increase in cell mass (OD450) (E. coli DH5α [1]; LB, 1 mM IPTG) | time after which cell mass stopped increasing (did not decrease) (E. coli DH5α [1]; LB, 1 mM IPTG) | inhibition of colony formation (E. coli DH5α [2]) | bacteriocidal or bacteriostatic (E. coli DH5α [3]) | growth and viability when antisense RNA is expressed (E. coli DH5α [3]; 1 mM IPTG, LB) | growth after induction of the antisense RNA (Salmonella typhimurium) | time at which cell mass began to decrease (E. coli DH5α [1]; LB, 1 mM IPTG) | cell lysis, microscopic examination (E. coli DH5α [1]; after induction of antisense RNA) | effect on colony forming ability (E. coli DH5α [4]; 10 μm IPTG) | anti-proliferative effect (E. coli DH5α [4]; 500 μm IPTG) | effect on the time of cell death of a 2 fold increase of IPTG (E. coli DH5α [4]; 1000 μm IPTG) | effect on cell growth or colony formation when induced with IPTG (E. coli DH5α [2]) | reduction of viability (E. coli DH5α [3]; 6 hours after induction, 1 mM IPTG, LB)
1 | pJB59: pLEX5BA with a 451 bp EcoRI/BamHI fragment of orf1/ampG in antisense orientation; expresses antisense RNA (SEQ ID NO: 7) (nucleic acid, expressed from plasmid pLEX5BA; Escherichia coli ampG) antisense: GAAUUCGUGGAUGCUGGUGUCCUGAGACAUAUCAGCGAUGGUAUCGGUCAGCACACUGUUAACCGCAUCGGCGAUAUUUUUGUUGGAGGCCUGGAACGCACCUUCAACGUUGUAGCUGGCACGAUAGUUUUUGGUCAUUUUGUUGCCAUUCUGCGCGGUAGCGAUGAUGGCGAUAUCCGCUUUGGUCGCGAUGUUGUAGCGCACGUUGCCCUGGGACACGUCAGCAUACAGUUGGCUAACGAUGAUUUGCAGAUUAACCGGGCCAUUCGGACCAACCAUGUAACCACGCGCGGUCAUCUGUUUUUCCAGCACUUCUUGCAGCAGGAAACGCAGAUCGCGGGAGGCGGUCAGGGUAACGAUUUGAUUAUCGCGGGUGACUUUUGCCAGCGCCUGAUCGGUACGCUGAUCGGCACCAUUAAUGCUUACGGUGACGCCCAUCAGGCUUGGAUCC | inhibited | about 3 hours | about 3 hours | more than 1000 fold | bacteriostatic | growth is inhibited but viability is not reduced |  |  |  |  |  |  |  | 
2 | pJB53: pLEX5BA with a 714 bp PstI/HindIII fragment of viaA in antisense orientation; expresses antisense RNA (SEQ ID NO: 4) (nucleic acid, expressed from plasmid pLEX5BA; Escherichia coli viaA) antisense: CUGCAGGCUGAGGUGUUGCCCUUACAAAUGCAACAACGACAUGGAUUACAACACCCUCAUAAACAAAGGGCAAUCACCUGAUCUAAGCUCUUACCUAUGACAGUGAUAGGUUAUGCCUUUUACUCGACUUUUGCACUGACUGAAAAGGACAAAUUAAUGUUAAAAAAGAUACUUUUACUGGCUCUGCUUCCUGCAAUCGCCUUCGCAGAGGAACUUCCUGCUCCAGUAAAAGCGAUUGAAAAACAGGGCAUUACAAUCAUCAAAACAUUCGAUGCCCCCGGAGGAAUGAAAGGUUAUCUCGGAAAGUAUCAGGAUAUGGGCGUCACCAUCUACCUGACUCCAGAUGGUAAGCACGCUAUCUCUGGUUACAUGUACAACGAGAAAGGUGAAAACCUGAGUAACACACUUAUCGAAAAAGAAAUUUACGCACCAGCCGGACGCGAAAUGUGGCAACGGAUGGAACAAUCCCACUGGCUCCUCGACGGUAAAAAAGAUGCGCCGGUCAUUGUCUACGUCUUCGCCGAUCCGUUCUGCCCAUAUUGUAAACAGUUCUGGCAGCAGGCGCGCCCGUGGGUAGAUUCUGGCAAAGUGCAAUUAAGAACAUUGUUGGUUGGGGUUAUCAAGCCAGAAAGCCCGGCGACAGCAGCGGCAAUUCUUGCCUCCAAAGAUCCCGCAAAAACCUGGCAACAAUAUGAAGCCUCUGGUGGCAAGCUU |  |  |  |  | bacteriocidal |  | greatly inhibited | about 4 hours | did not | minimal effect | near maximal | little effect | unable to form colonies | about 3 logs
